Data set [1] deals with the molecule itself. Nature of the data set: sucrose density gradient centrifugation; purified IbpA (3 μM, dimeric units) alone in buffer F (50 mM Hepes-KOH pH 7.6, 0.1 M KCl, 5 mM DTT, 20 mM Mg-acetate) on a 10% to 30% (w/v) sucrose gradient, SW 41 Ti, 35,000 rpm, 4 °C, 80 min; fractions by SDS-PAGE with Western blot (anti-IbpA) or CBB staining; oligomeric state. Background: A western blot detects proteins with antibodies after separation by electrophoresis.

For data set [2], the target named is T1, Escherichia coli inclusion body-associated protein B (Escherichia coli, UniProt P0C058 1-142).
T1 construct: Small heat shock protein IbpB of Escherichia coli; also called IbpBEc; His-IbpBEc; source: purified with Ni-NTA agarose upon denaturation by 6 M urea
T1 sequence (looked up): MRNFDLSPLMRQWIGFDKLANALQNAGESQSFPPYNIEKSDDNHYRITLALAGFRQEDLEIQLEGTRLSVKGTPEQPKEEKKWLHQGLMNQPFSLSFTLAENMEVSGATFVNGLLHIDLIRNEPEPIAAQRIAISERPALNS
The experiment in a line: co-sedimentation; sucrose density gradient centrifugation: IbpAEc (3 μM) and IbpBEc (7 μM) in buffer F incubated at room temperature for 30 min, 10% to 30% (w/v) sucrose gradient; SDS-PAGE with 6 M urea and CBB staining. As to conditions: both partners purified.

Changes are numbered by the printed parent chain. Numbers in names are those of the source.

B1: Escherichia coli inclusion body-associated protein A, wild type (natural protein, UniProt P0C054 1-137, looked up)
chain: MRNFDLSPLYRSAIGFDRLFNHLENNQSQSNGGYPPYNVELVDENHYRIAIAVAGFAESELEITAQDNLLVVKGAHADEQKERTYLYQGIAERNFERKFQLAENIHVRGANLVNGLLYIDLERVIPEAKKPRRIEIN
notes: Small heat shock protein IbpA of Escherichia coli, expressed from pCA24N-ibpAEc; also called IbpAEc; IbpAEc-WT; source: E. coli BW25113ΔAB, overexpressed (0.5 mM IPTG), purified (anion exchange chromatography)
Turning to B1, the binding result in data set [1] and in data set [2] was “binds” each time.

B2: Escherichia coli inclusion body-associated protein A, R93A mutant (natural protein, UniProt P0C054 1-137, looked up)
chain: B1 chain with R93A
notes: Small heat shock protein IbpA of Escherichia coli with R93A, made by site-directed mutagenesis of pCA24N-ibpAEc; also called IbpAEc-R93A; IbpA-R93A; source: E. coli BW25113ΔAB, overexpressed (0.5 mM IPTG), purified (anion exchange chromatography)
Consider B2, for which the binding result in data set [1] and in data set [2] was “binds” each time.

Values taken from publication PMC10474464, “The mRNA binding-mediated self-regulatory function of small heat shock protein IbpA in γ-proteobacteria is conferred by a conserved arginine” (The Journal of Biological Chemistry, 2023).
